Measured values as given in patent US7422862B2, “Methods for identifying modulators of apoptosis” (The Burnham Institute, priority 2001, dated 2008).
No end group written: not given here.

Assays:
CSM14.1 cells = experiment: Apoptosis of CSM14.1 cells induced by various stimuli; format: cell-based, rat
Protocol: (A-D) CMS14.1 neuronal cells were transfected with plasmids encoding Flag-HN peptide or Flag-control (27-amino-acid) peptide, together with GFP-encoding plasmid at 4:1 ratio. Cells were either cultured without further treatment (open bars) or subjected to various apoptotic stimuli for various times (dark bars), including (A) STS for 8 h (dark symbols=Flag-control; open symbols=Flag-HN), (B) Serum-deprivation for 72 h, (C) 10 joules/m2 Uvirradiation followed by 24 h culture, and (D) 50 ng/ml TNFa in […] for 24 h. Cells were then fixed and stained with DAPI to determine the percentage of apoptotic cells, evaluating=200 GFP-positive cells per sample (mean±SD; n=3). (inset) Lysates prepared from replicate cultures of transfected cells were normalized for total protein content and analyzed by immunoblotting using anti-Flag (top) and anti-tubulin (bottom) antibodies, confirming production of similar amounts of Flag-control and Flag-HN peptides. (E) SF268 cells were transfected with Humanin siRNA (HN-siRNA) (dark bars) or mutant siRNA containing two mismatches (mut-siRNA) as negative control (open bars). (Upper panel) After 72 hr, cell lysates were prepared and 100 ug was analyzed by immunoblotting using anti-HN and anti-tubulin (as a loading control) antibodies. (Lower panel) At 72 hr after siRNA transfection, SF268 cells were cultured with 0.1 μM STS for 8 hrs, then % apoptosis was determined (mean+std dev; n=3). (F) HN protects against Bax- but not Bak-induced apoptosis. CSM14.1 neuronal cells were co-transfected with pcDNA3-HA-Bax or pcDNA3-HA-Bak together with plasmids encoding with GFP (indicated by “-”), GFP-HN, or GFP-HN(C8P). Apoptosis (%) was measured 48 hrs later among GFP-positive cells. (G) Humanin inhibits STS-induced apoptosis in wild type HCT116 cells, but not HCT116 BAX -/- cells. HCT116 cells heterozygous or homozygous for BAX gene inactivation were transfected with plasmids encoding GFP (open bars) or GFP-HN (dark bars). After 24 h, cells were cultured without (C) or with STS (0.2 μM for wild type and 1.0 μM for Bax - /- cells) for 8 h, then % apoptosis was determined for GFP-positive cells (mean+std dev; n=3). (inset) Lysates from the cells were analyzed by immunoblotting (20 ug) using anti-Bax (top) and anti-Bid (bottom) antibodies. (H) HN prevents Bax-induced cell death in yeast. Cells were co-transformed with YEp51-Bax (encoding Bax under control of a GAL10 promoter) and plasmid control (C) or plasmids encoding Humanin or Humanin(C8P) fusion polypeptides. Cells initially grown in glucose-containing medium were streaked onto either glucose (top) or galactose (bottom) plates to suppress or induce Bax expression, respectively.
For these experiments, Flag-epitope tagged Humanin (Flag-HN) or Flag control polypeptides were expressed in CSM14.1 cells, an immortalized rat hippocampal neuronal cell line that has been used as a model for neuronal apoptosis studies (Kermer et al., Cell Death Differ. 9:405-413 (2002)). Apoptosis of CSM14.1 cells induced by Staurosporine (STS), UV-irradiation, and serum-deprivation was suppressed by Flag-HN (FIG. 6A-C). […] Note that at higher doses of STS (FIG. 6A), Humanin-mediated protection was overcome, indicating Humanin-insensitive mechanisms of apoptosis induction exist, even when using a mitochondria-dependent death stimuli.
Apoptosis assays were performed as follows. […]

Bax [1] = target: T1, Bax (Homo sapiens, UniProt Q07812); experiment: Co-immunoprecipitation of GFP-Humanin fusion polypeptides with Bax in transfected cells; format: binding; parameters: expressed in transfected cells; host or cells: HEK293T; key to Bax binding: +: ability to bind Bax was determined by co-immunoprecipitation assay; −: lacked Bax-binding activity; conditions: for Bax binding: GFP-fusion polypeptides, co-immunoprecipitation
T1 sequence (Q07812 whole entry, species assumed, the tested form may be a part): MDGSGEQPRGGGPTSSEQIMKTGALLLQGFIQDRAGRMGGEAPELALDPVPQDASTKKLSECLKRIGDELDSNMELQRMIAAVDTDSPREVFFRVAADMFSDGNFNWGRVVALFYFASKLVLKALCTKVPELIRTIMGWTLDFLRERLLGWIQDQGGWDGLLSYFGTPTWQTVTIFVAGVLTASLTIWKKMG
Description: Humanin (HN) cDNA was sub-cloned into a Green Fluorescence Protein (GFP) expression vector GFP-Cl at the Xhol/Hind III sites, producing a GFP-HN fusion polypeptide. GFP and GFP-HN were transfected into 293T cells with pcDNA3-HA-Bax. Cell lysates from these cells were immunoprecipitated with anti-GFP antibody and subsequently blotted with anti-HA antibody. The lysates were also blotted with ani-GFP antibody to confirm polypeptide expression. […] The data shown were obtained using the cytosolic form of Humanin; however, both cytosolic and mitochondrial forms of Humanin were tested and the results were the same.
Co-immunoprecipitation assays were performed using Humanin polypeptides expressed as fusion polypeptides with the Green Fluorescent Protein (GFP) in human cells. Wild-type Humanin fused to GFP is referred to as GFP-HN and a mutant form of Humanin, where the cysteine at position 8 is replaced with proline, fused to GFP is referred to as GFP-C8P. […] Immunoblot analysis of lysates of the transfected cells confirmed production of all proteins. In addition, GFP-HN also coimmunoprecipitated endogenous Bax from cell lines, which contain relatively high levels of the Bax protein.
Immunoblotting and immunoprecipitations were performed as follows. Immunoblotting was performed as described previously (Fields and Song, Nature 340:245-246 (1989)). For co-immunoprecipitations, cells were cultured in 50 uM […] Valine Alanine Asparate fluoromethyl-ketone (zVAD-fmk) to prevent apoptosis. Cells were suspended in lysis buffer (50 mM Tris-HCl, pH7.4; 150 mM NaCl; 20 mM EDTA; 50 mM NaF; 0.5% NP-40; 0.1 mM Na3VO4; 20 ug/ml Leupeptin; 20 ug/ml Aprotinin; 1 mM DTT; and 1 mM PMSF). Lysates (200 ul diluted in 1 ml final volume of lysis buffer) were cleared by incubation with 15 ul of protein G-Sepharose 4B (Zymed) and then incubated with 15 ul of polyclonal antibody and 15 ul of protein G at 4° C. overnight. Beads were then washed 4 times with 1.5 mls lysis buffer before boiling in Laemmli sample buffer and performing SDS-PAGE/immunoblotting.
(§1) In order to explore whether a correlation exists between Humanin binding to Bax and Humanin-mediated suppression of apoptosis, Bax was co-expressed with various GFP-fusion polypeptides encoding wild-type, full-length Humanin or various truncation and site-specific mutants of Humanin (Table 1). Expression of all GFP-fusion polypeptides was confirmed by immunoblotting, and ability to bind Bax was determined by co-immunoprecipitation assay. Each Humanin mutant was scored for ability to suppress apoptosis induced by Bax over-expression by >50% using a 3:1 ratio of HN:Bax plasmid DNA. […] Based on these studies, an active region of the 24 amino-acid Humanin peptide, mapped to residues 7-17.

Bax [2] = target: T1, Bax; experiment: Bax-induced apoptosis in transfected neuronal cells (DAPI staining); format: cell-based; parameters: expressed in transfected cells
Protocol: (A) HEK293T cells were transfected with pcDNA3-HA-Bax together with plasmids encoding GFP, GFP-HN(N), or GFP-HN(M). Cell lysates were immunoprecipitated with polyclonal anti-GFP antibody. Immunoprecipitates (IP) or cell lysates were analyzed by immunoblotting using anti-HA or anti-GFP antibodies, respectively. (B) CSM14.1 neuronal cells were co-transfected with pcDNA3-HA-Bax together with plasmids encoding GFP, GFP-HN(N), or GFP-HN(M). Percent apoptosis was determined 48 h later by DAPI staining (mean±SD; n=3).
(§2) Rat neuronal cell line CSM14.1 cells were transfected with various plasmids using the Lipofectamine reagent (Invitrogen). For transfection, 10×10^5 cells were plated per well using 6 well plates. Each well received 1 μg DNA plus […] of Lipofectamine. After 24 hours of transfection, the percentage of cell death was determined using 4′-6-diamidino-2-phenylindole (DAPI) staining. […] The data shown were obtained using the cytosolic form of Humanin; however, both cytosolic and mitochondrial forms of Humanin were tested and the results were the same.
(§3) Apoptosis assays were performed as follows. Both floating and adherent cells (after trypsinization) were collected 48 hr after transfection, fixed, and stained using 4′,6-diamidine-2′-phenylindole dihydrochloride (DAPI) for assessing apoptosis based on nuclear fragmentation and chromatin condensation (Fields and Song, supra (1989)).
Since Humanin co-immunoprecipitates with Bax but not Bak, the effects of Humanin over-expression on apoptosis induced by these members of the Bcl-2 family was compared. […] Similar results were obtained regardless of whether Humanin was fused to the N- or C-terminus of GFP, with both of these GFP fusion polypeptides localizing to the cytosol of cells.

[3] = previously reported (Hashimoto et al.); cited from earlier work
Bax [4] = target: T1, Bax; experiment: Suppression of apoptosis induced by Bax over-expression (Humanin mutants); format: cell-based; parameters: expressed in transfected cells; host or cells: HEK293T; conditions: GFP-fusion polypeptides, 3:1 ratio of HN:Bax plasmid DNA
Protocol: as §3, §1
Cell culture and transfections were performed as follows. CSM14.1, HCT116, Cos-7, and SF268 cells were cultured in DMEM high glucose media (Irvine Scientific, Santa Ana, Calif.) containing 10% fetal bovine serum (FBS). PC-3 cells were cultured with RPMI 1640 media containing 10% FBS. Transfection of cells was performed using SuperFect (Qiagen, Chatsworth, Calif.) or LipofectaminePLUS reagent ([…]).

t-Bid = target: T2, t-Bid (Homo sapiens, UniProt P55957); experiment: Bid-induced apoptosis in CSM14.1 cells (DAPI staining); format: cell-based; parameters: expressed in transfected cells; host or cells: CSM14.1 rat hippocampal neuronal cells; conditions: 24 hours after transfection
T2 sequence (P55957 61-195 limits assumed): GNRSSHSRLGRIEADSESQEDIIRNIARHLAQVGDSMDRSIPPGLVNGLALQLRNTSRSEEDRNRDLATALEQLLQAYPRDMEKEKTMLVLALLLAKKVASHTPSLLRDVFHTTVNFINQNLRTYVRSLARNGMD
Protocol: Apoptosis was examined by DAPI staining. The data shown were obtained using the cytosolic form of Humanin; however, both cytosolic and mitochondrial forms of Humanin were tested and the results were the same.
as §2

For “Flag-HN: Flag-epitope tagged Humanin expressed in cells (MAPRGFSCLLLLTSEIDLPVKRRA; also: Flag epitope tag; UniProt Q8IVG9 1-24, looked up)”, the “apoptosis induced by UV-irradiation” value (CSM14.1 cells) was “suppressed”, the “apoptosis induced by serum-deprivation” value (CSM14.1 cells) was “suppressed” and the “apoptosis induced by TNF” value (CSM14.1 cells; Bax-independent death stimulus) was “not suppressed”. For the same substance, the “apoptosis induced by Staurosporine (STS)” value (CSM14.1 cells; STS 8 h) was “suppressed” and the “protection at higher doses of STS” value (CSM14.1 cells; higher doses of STS) was “overcome”.
For “GFP-HN(C8P): mutant Humanin, cysteine at position 8 replaced with proline, fused to GFP (MAPRGFSPLLLLTSEIDLPVKRRA; also: fused to GFP; UniProt Q8IVG9 1-24, looked up, variant C8P)”, the “co-immunoprecipitation with tagged Bax” value (Bax [1]; 293T/HEK293T cells, anti-GFP immunoprecipitation) was “did not”, the Bax binding (Bax [1]) was “−” and the “suppression of apoptosis induced by Bax” value (Bax [2]; CSM14.1 or PC-3 cells, transient co-transfection) was “did not suppress”. The “anti-apoptotic activity when expressed in cells” value [3] was “lack anti-apoptotic activity” and the Bax suppression (Bax [4]) was “− (failed to protect against Bax-induced apoptosis)”.
For “Humanin (C8A): mutant form of Humanin where the cysteine at position 8 was mutated to an alanine (MAPRGFSALLLLTSEIDLPVKRRA; also: fused to GFP; UniProt Q8IVG9 1-24, looked up, variant C8A)”, the Bax-induced apoptosis (Bax [2]; CSM14.1 cells, 24 hours after transfection, DAPI) was “not able to decrease” and the Bid-induced apoptosis (t-Bid) was “not able to decrease”.
For “L9R: GFP-fusion of Humanin site-specific mutant L9R (MAPRGFSCRLLLTSEIDLPVKRRA; also: fused to GFP; UniProt Q8IVG9 1-24, looked up, variant L9R)”, the Bax binding (Bax [1]) is given as “−”, the “anti-apoptotic activity when expressed in cells” value [3] is given as “lack anti-apoptotic activity” and the Bax suppression (Bax [4]) is given as “− (failed to protect against Bax-induced apoptosis)”.
